The source of these data is patent US20240368303A1 (ZHEJIANG SHIMAI PHARMACEUTICAL, published 2024).

Experiment [1] has as its target T1, recombinant human GPC3 (full-length extracellular domain) (human, UniProt P51654 25-559).
T1 construct: extracellular domain; Bought protein coated on ELISA plates; also called human GPC3 protein
In words: ELISA, GPC3 coated at 50 ng per well, anti-FLAG-HRP detection. On the procedure:
The hexahistidine-tagged 1A1 Fab and 6A4 Fab were expressed in E. coli strain HB2151 and purified from the soluble fraction of periplasm by using the Ni-NTA resin. Then ELISA was performed by using standard protocols to measure binding affinity to recombinant human GPC3 (full-length extracellular domain). Briefly, the recombinant human GPC3 (ACROBiosystems) was coated on Corning EIA/RIA high-binding 96-well plates (Corning Inc.) at 50 ng per well overnight at 4° C. and blocked with 3% nonfat milk in PBS (pH7.4). Fivefold serially diluted antibodies were added and incubated at room temperature for 2 h. The plates were washed with PBS containing 0.05% Tween 20. Bound antibodies were detected by HRP-conjugated anti-FLAG tag antibody (Sino Biological). The assay was developed at room temperature with TMB substrate (Solarbio) and OD value was measured at 450 nm with a microplate reader.
(In general: In an ELISA, binding on a coated surface is turned into a signal by an enzyme label.)

The target in experiment [2] is T2, recombinant cynomolgus GPC3 (cynomolgus, UniProt A0A2K5VK50 24-558).
T2 construct: Bought protein; also called cynomolgus GPC3 protein
In words: ELISA, GPC3 coated, biotinylated antibody, streptavidin-HRP detection. On the procedure:
(§1) ELISA was performed according to standard protocols, to determine binding affinity of anti-GPC3 1A1 mAb to recombinant GPC3 from human, cynomolgus, and mouse and anti-GPC3 6A4 mAb to recombinant human GPC3. Briefly, recombinant GPC3 (AcroBiosystems) was coated on Corning EIA/RIA high-binding 96-well plates (Corning Inc.) at 50 ng per well overnight at 4° C. and blocked with 3% nonfat milk in PBS (pH7.4). Fivefold serially diluted biotinylated antibodies were added and incubated at room temperature for 2 h. The plates were washed with PBS containing 0.05% Tween 20. Bound antibodies were detected by HRP-conjugated streptavidin (Sino Biological). The assay was developed at room temperature with TMB substrate (Solarbio) and monitored at 450 nm with a microplate reader. The half-maximal binding (EC₅₀) was calculated by fitting the data to the Langmuir adsorption isotherm.

The target of another experiment is T3, recombinant mouse GPC3 (mouse, UniProt Q8CFZ4 25-558, limits assumed).
T3 construct: Bought protein; also called mouse GPC3 protein
T3 sequence (Q8CFZ4 25-558 limits assumed): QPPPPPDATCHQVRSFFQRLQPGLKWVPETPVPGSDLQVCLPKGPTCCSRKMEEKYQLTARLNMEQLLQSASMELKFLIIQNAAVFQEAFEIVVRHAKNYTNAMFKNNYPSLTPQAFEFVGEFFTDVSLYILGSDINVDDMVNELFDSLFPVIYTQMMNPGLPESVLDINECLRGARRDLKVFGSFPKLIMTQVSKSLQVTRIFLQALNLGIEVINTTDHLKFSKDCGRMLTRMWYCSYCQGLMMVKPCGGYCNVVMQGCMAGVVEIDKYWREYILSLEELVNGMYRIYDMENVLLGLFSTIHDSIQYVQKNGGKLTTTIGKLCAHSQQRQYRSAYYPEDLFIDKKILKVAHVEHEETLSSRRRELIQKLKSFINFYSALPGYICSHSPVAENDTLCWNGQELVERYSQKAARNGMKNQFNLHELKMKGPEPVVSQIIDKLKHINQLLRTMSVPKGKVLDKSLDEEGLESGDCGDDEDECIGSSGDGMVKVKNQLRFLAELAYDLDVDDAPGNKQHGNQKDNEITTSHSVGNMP
Described as above. On the procedure: as §1

Experiment [3] deals with T1, recombinant human GPC3 (full-length …). The experiment is described as above. Here is the method:
as §1

B1: 1A1 Fab (Fab, V domains shown)
VH: EVQLVQSGAEVKKPGASVKVSCKASGYTFTSYGISWVRQAPGQGLEWMGWISAYNGNTNYAQKLQGRVTMTTDTSTSTAYMELRSLRSDDTAVYYCARAGTPTQILRYFDWLSQPFDYWGQGTLVTVSS
VL: EIVLTQSPLSLPVTLGQPASISCRSSQSLVYSDGNTYLNWFHQRPGQSPRRLIYKVSNRDSGVPERFSGSGSGTDFTLKISRVEAEDVGVYYCMQSTHWPLTFGGGTKVEIK
notes: Human Fab from a phage library, kappa light chain, hexahistidine-tagged, made in E. coli HB2151, detected with anti-FLAG antibody; also called Fab clone 1A1; anti-GPC3 1A1 Fab
Turning to B1, in experiment [1], the 50% effective concentration (EC50) (commonly the midpoint of the concentration-response curve) was about 190 nM.

B2: anti-GPC3 1A1 mAb (antibody, human IgG1, kappa, V domains shown)
VH: EVQLVQSGAEVKKPGASVKVSCKASGYTFTSYGISWVRQAPGQGLEWMGWISAYNGNTNYAQKLQGRVTMTTDTSTSTAYMELRSLRSDDTAVYYCARAGTPTQILRYFDWLSQPFDYWGQGTLVTVSS
VL: EIVLTQSPLSLPVTLGQPASISCRSSQSLVYSDGNTYLNWFHQRPGQSPRRLIYKVSNRDSGVPERFSGSGSGTDFTLKISRVEAEDVGVYYCMQSTHWPLTFGGGTKVEIKR
notes: Intact human IgG1 kappa, about 150 kDa on non-reducing SDS-PAGE
Regarding B2, the values for the concentration giving a half-maximal response (EC50) (in experiment [2]; in the experiment with recombinant mouse GPC3; in experiment [3]) were 0.58 nM, 1.12 nM and 0.6 nM, respectively.

B3: 6A4 Fab (Fab, V domains shown)
VH: EVQLVQSGAEVKKPGASVKVSCKASGYTFTSYAMHWVRQAPGQRLEWMGWINAGNGNTKYSQKFQGRVTITRDTSTSTAYMELRSLRSDDTAVYYCARDPSHWGQGTLVTVSS
VL: not shown
notes: Human Fab from a phage library, kappa light chain, hexahistidine-tagged, made in E. coli HB2151, detected with anti-FLAG antibody; also called Fab clone 6A4
Consider B3, for which the EC50 in experiment [1] was about 234 nM.

B4: anti-GPC3 6A4 mAb (antibody, V domains shown)
VH: EVQLVQSGAEVKKPGASVKVSCKASGYTFTSYAMHWVRQAPGQRLEWMGWINAGNGNTKYSQKFQGRVTITRDTSTSTAYMELRSLRSDDTAVYYCARDPSHWGQGTLVTVSS
VL: not shown
notes: Intact human IgG1 kappa
Regarding B4, in experiment [3], the EC50 is 4.5 nM.
